# Measured values reported in patent publication US20250009852A1, “DEPLETING EGFR AND HER2 OVERCOMES RESISTANCE TO EGFR INHIBITORS IN COLORECTAL CANCER” (Health Research, Inc., priority 2021, published 2025).
# B1: PEPD^G278D: recombinant and enzymatically inactive mutant of human peptidase D (PEPD), with replacement of glycine 278 by aspartic acid (protein)
# chain: AAATGPSFWLGNETLKVPLALFALNRQRLCERLRKNPAVQAGSIVVLQGGEETQRYCTDTGVLFLQESFFHWAFGVTEPGCYGVIDVDTGKSTLFVPRLPASHATWMGKIHSKEHFKEKYAVDDVQYVDEIASVLTSQKPSVLLTLRGVNTDSGSVCREASFDGISKFEVNNTILHPEIVESRVFKTDMELEVLRYTNKISSEAHREVMKAVKVGMKEYGLESLFEHYCYSRGGMRHSSYTCICGSGENSAVLHYGHAGAPNDRTIQNGDMCLFDMDGEYYSVASDITCSFPRNGKFTADQKAVYEAVLLSSRAVMGAMKPGDWWPDIDRLADRIHLEELAHMGILSGSVDAMVQAHLGAVFMPHGLGHFLGIDVHDVGGYPEGVERIDEPGLRSLRTARHLQPGMVLTVEPGIYFIDHLLDEALADPARASFLNREVLQRFRGFGGVRIEEDVVVIDSGIELLTCVPRTVEEIEACMAGCDKAFTPFSGPK
# modifications: left off: small tags and cut ends
# How the values were obtained:
# Type in all cases: cell-based, human
# [1] = tested on: HCT116 cells; test: MTT cell proliferation assay; details: 24, 48 or 72 h, PEPD^G278D 5-250 nM, cetuximab 2.75-275 nM, panitumumab 2.77-277 nM
# Protocol: (§1) Cells were grown in 96-well plates. […] The cells were then washed with PBS and mixed with dimethyl sulfoxide (150 μl per well), and cell density was determined by measuring the reduction of MTT to formazan spectroscopically at 570 nm using a Synergy 2 Multi-Mode Microplate Reader (BioTek). In experiments involving siRNA transfection, 2×10^3 HCT116 cells or 6×10^3 HT29 cells were seeded to each well of 96-well plates overnight and then transfected 25 nM siRNA (scramble siRNA, EGFR siRNA or HER2 siRNA) as described above, followed by MTT assay.
# [2] = tested on: HT29 cells; test: MTT cell proliferation assay; details: 24, 48 or 72 h, PEPD^G278D 5-250 nM, cetuximab 2.75-275 nM, panitumumab 2.77-277 nM
# Protocol: as §1
# [3] = tested on: SW48 cells; test: MTT cell proliferation assay
# Protocol: as §1
# [4] = tested on: SW620 cells; test: MTT cell proliferation assay; details: SW620 cells (no EGFR, no HER2); 24, 48 or 72 h
# Protocol: as §1
# [5] = tested on: PI3K; test: PI3K activity assay (PI3-Kinase Activity ELISA) in cell lysates; details: 25 nM, 48 h
# Protocol: PI3K activity was measured using a PI3-Kinase Activity ELISA Kit from Echelon Biosciences, following manufacturer's instruction. Briefly, PI3K was pulled down from whole cell lysates using an antibody for PI3K/p85. Each sample was prepared from approximately 1×10^6 cells. The entire immunoprecipitate from each sample was mixed with 30 μl of KBZ reaction buffer, which was then mixed with 30 μl of 10 μM PI(4,5)P2 substrate and incubated for 2 h at 37° C. The kinase reaction was terminated by adding 90 μl of kinase stop solution to each reaction solution, and 60 μl of each mixture was transferred together with 60 μl of PIP3 detector to a well in the incubation plate. After incubation at RT for 1 h, 100 μl per sample from the incubation plate was transferred to the detection plate and incubated for 1 h at RT. The detection plate was washed with TBST, incubated with the HRP-conjugated secondary detector for 30 min, washed again with TBST, and the immobilized HRP was measured by a standard colorimetric assay, using 3,3′,5,5′-tetramethylbenzedine as a substrate and a Synergy 2 Multi-Mode Microplate Reader to record absorbance.
# [6] = tested on: EGFR^R451C, EGFR^K467T, EGFR^S492R and WT EGFR; test: Western blotting of SW620 cells transfected with EGFR or its mutant; details: 25 nM for 48 h, extent very similar to WT EGFR
# Source text: pGL4.51[luc2/CMV/Neo] was purchased from Promega (Cat #E132A). pCMV6-A-EGFR-puro, reported previously, was used as a template to generate single point mutations of EGFR, including R451C, K467T, and S492R, using the QuikChange Lightning Site-Directed Mutagenesis Kit (Agilent Technologies). The primers were purchased from IDT, including primers for generating EGFR^R451C (forward: 5′-[…]-3 (SEQ ID NO:2); reverse: 5′-[…]-3′ (SEQ ID NO:3), EGFR^K467T(forward: 5-[…]-3′ (SEQ ID NO:4); reverse: 5′-[…]-3′ (SEQ ID NO:5), and EGFR^S492R (forward: 5′-[…]-3′ (SEQ ID NO:6); reverse: 5′-[…]-3′ (SEQ ID NO:7)). All constructs were confirmed by DNA sequence analysis.
# Transfection of pCMV6-A-puro-EGFR, pCMV6-A-puro-EGFR^R451C, pCMV6-A-puro-EGFR^K467T or pCMV6-A-puro-EGFR^RS492R was performed using Lipofectamine 3000. SW620 cells were grown in 6-well plates (3×10^5 cells/well with 2 ml medium) for 24 h and then transfected with a plasmid at 1 μg DNA per well for 48 h. […]
# Protein concentrations in all samples were measured using the BCA Assay Kit. […] Proteins were transferred to polyvinylidene fluoride membrane, probed with specific antibodies, and detected using either Luminata Classico (Millipore) or Luminata Cresendo (Millipore). […] The beads were washed three times with IP buffer, suspended in 2× SDS loading buffer, boiled for 5 min, and analyzed by Western blotting.
molecule,measurement,setting,value
B1,cell growth measured by MTT assay,[1],strongly inhibited the growth
same,cell growth measured by MTT assay,[2],strongly inhibited the growth
same,growth-inhibitory potency compared with the EGFR MABs,[3],more potent
same,cell growth measured by MTT assay,"[3]; 24, 48 or 72 h, PEPD^G278D 5-250 nM, cetuximab 2.75-275 nM, panitumumab 2.77-277 nM",strongly inhibited the growth
same,cell growth measured by MTT assay,[4],ineffective
same,inhibition of PI3K activity,[5]; HCT116 cells,74%
same,inhibition of PI3K activity,[5]; HT29 cells,71%
same,inhibition of PI3K activity,[5]; SW48 cells,76%
same,inhibition of PI3K activity,[5]; SW620 cells,not in SW620 cells
same,"downregulation (expression and phosphorylation) of each EGFR mutant R451C, K467T, S492R",[6],strongly downregulated
